Target: T1, KDM5A1-797 (Homo sapiens, UniProt P29375)
T1 construct: KDM5A1-797 was cloned into a pFASTBAC HTA vector; His (N, cleaved yes); made in house; host or cells: Sf21 insect cells (baculovirus)
T1 sequence (P29375 1-797): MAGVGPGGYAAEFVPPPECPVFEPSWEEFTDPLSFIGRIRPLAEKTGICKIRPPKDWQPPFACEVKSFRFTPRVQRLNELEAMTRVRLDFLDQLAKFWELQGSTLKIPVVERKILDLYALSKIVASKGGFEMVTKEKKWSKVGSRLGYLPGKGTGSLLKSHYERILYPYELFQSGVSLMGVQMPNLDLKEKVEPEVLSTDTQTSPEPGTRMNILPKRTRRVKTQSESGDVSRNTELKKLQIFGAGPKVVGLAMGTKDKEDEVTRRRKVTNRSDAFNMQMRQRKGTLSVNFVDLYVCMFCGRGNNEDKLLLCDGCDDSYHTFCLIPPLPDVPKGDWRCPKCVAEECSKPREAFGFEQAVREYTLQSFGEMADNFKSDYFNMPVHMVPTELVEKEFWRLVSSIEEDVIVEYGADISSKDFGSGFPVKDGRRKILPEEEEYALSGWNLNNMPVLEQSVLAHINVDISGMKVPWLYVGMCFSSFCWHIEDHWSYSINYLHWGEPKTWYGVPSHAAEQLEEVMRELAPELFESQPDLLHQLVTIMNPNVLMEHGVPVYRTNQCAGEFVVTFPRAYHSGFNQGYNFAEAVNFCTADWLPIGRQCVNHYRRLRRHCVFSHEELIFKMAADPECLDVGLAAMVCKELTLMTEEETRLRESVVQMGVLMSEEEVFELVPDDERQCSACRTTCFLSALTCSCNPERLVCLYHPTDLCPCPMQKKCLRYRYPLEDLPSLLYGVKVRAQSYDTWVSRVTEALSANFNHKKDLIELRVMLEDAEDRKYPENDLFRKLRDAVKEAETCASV
Experiment: HDX-MS of KDM5A with peptides
Method: Solution-phase amide HDX experiments were carried out with a fully automated system (CTC HTS PAL, LEAP Technologies, Carrboro, NC; housed inside a 4 °C cabinet).
Peptides were identified using tandem MS (MS^2 or MS/MS) experiments performed with a LTQ linear ion trap mass spectrometer (LTQ Orbitrap XL with ETD, Thermo Fisher, San Jose, CA) over a 70 min gradient. Product ion spectra were acquired in a data-dependent mode and the five most abundant ions were selected for the product ion analysis per scan event. The MS/MS *.raw data files were converted to *.mgf files and then submitted to MASCOT ver2.3 (Matrix Science, London, UK) for peptide identification. […]
For differential HDX experiments, 5 μl of 20 μM KDM5A1-797 was diluted to 25 μl with D2O-containing HDX buffer (40 mM HEPES, 50 mM KCl, pH 7.9) and incubated at 4 °C for 10, 30, 60, 900, and 3600 s. […] Percent deuterium exchange values for peptide isotopic envelopes at each time point were calculated and processed using HDX Workbench. […] The intensity weighted mean m/z centroid value of each peptide envelope was calculated and subsequently converted into a percentage of deuterium incorporation. Statistical significance for the differential HDX data is determined by an unpaired t-test for each time point, a procedure that is integrated into the HDX Workbench software. […]

Substance | perturbation of deuterium uptake (Ac-H3K4me3 21mer alone (500 µM) vs apo, 4 °C, triplicate) | deuterium exchange of PHD1 residues Gly300-Ala342, both peptides (H3 10mer (100 µM) and Ac-H3K4me3 21mer (500 µM) both present vs apo)
Ac-H3K4me3 21mer: N-terminally acetylated 21mer H3K4me3 peptide, catalytic domain substrate | no perturbations are observed | –
H3: unmodified N-terminal H3 tail 10mer peptide (H3 Ala1-Ser10), PHD1 effector ligand | – | increased protection observed in the PHD1 domain
